According to the DeepSol protein solubility set:

Assay: soluble on expression in E. coli; label from the status in PepcDB or PDB records

| Sequence | soluble on expression in E. coli |
| --- | --- |
| MERNDIINFKALEKELQAALTADEKYKRENAAKLRAVEQRVASYEEFRGIVLASHLKPLERKDKMGGKRTVPWNCHTIQGRTFQDVATEISPEKAPLQPETSADFYRDWRRHLPSGPERYQALLQLGGPRLGCLFQTDVGFGLLGELLVALADHVGPADRAAVLGILCSLASTGRFTLNLSLLSRAERESCKGLFQKLQAMGNPRSVKEGLSWEEQGLEEQSGGLQEEERLLQELLELYQVD | soluble |
| MGMACLTMTEMEATSTSPVHQNGDIPGSANSVKQIEPVLQVYLYHSLGQAEGEYLKFPSGEYVAEEICVAASKACGITPVYHNMFALMSETERIWYPPNHVFHIDESTRHDILYRIRFYFPHWYCSGSSRTYRYGVSRGAEAPLLDDFVMSYLFAQWRHDFVHGWIKVPVTHETQEECLGMAVLDMMRIAKEKDQTPLAVYNSVSYKTFLPKCVRAKIQDYHILTRKRIRYRFRRFIQQFSQCKATARNLKLKYLINLETLQSAFYTEQFEVKESARGPSGEEIFATIIITGNGGIQWSRGKHKESETLTEQDVQLYCDFPDIIDVSIKQANQECSNESRIVTVHKQDGKVLEIELSSLKEALSFVSLIDGYYRLTADAHHYLCKEVAPPAVLENIHSNCHGPISMDFAISKLKKAGNQTGLYVLRCSPKDFNKYFLTFAVERENVIEYKHCLITKNENGEYNLSGTKRNFSNLKDLLNCYQMETVRSDSIIFQFTKCCPPKPKDKSNLLVFRTNGISDVQISPTLQRHNNVNQMVFHKIRNEDL | not soluble |
| MIEPVLENVQPNSAASKAGLQAGDRIVKVDGQPLTQWVTFVMLVRDNPGKSLALEIERQGSPLSLTLIPESKPGNGKAIGFVGIEPKGKASPV | soluble |
| GRFSDELVEACAEMVRQRWNPHPEPTWVCCVPSLRHLDLVPDFARRLAAKLGLPFIDAIEKVVDNPPQKMQQNRFHQCQNLDGAFVITPPLMPGPALLVDDIVDSAWTLTVLTALLRQAGCPTVYPLALASTSVK | not soluble |
| MSLSRAAIVDQLKEIVGADRVITDETVLKKNSIDRFRKFPDIHGIYTLPIPAAVVKLGSTEQVSRVLNFMNAHKINGVPRTGASATEGGLETVVENSVVLDGSAMNQIINIDIENMQATAQCGVPLEVLENALREKGYTTGHSPQSKPLAQMGGLVATRSIGQFSTLYGAIEDMVVGLEAVLADGTVTRIKNVPRRAAGPDIRHIIIATKVHCAISLK | soluble |
| PNIEFFTLKTPDGSELDSVQVTGEDEEKKPMGERKFIITCIARDQNFINWIKDLNYTAKNLGATAISFNYRGVDYSRGLVWTENNLVDDILAQVQRLISLGADPKNICLDGMCIGGAVATIAAAKLHEKG | not soluble |
| MGSDKIHHHHHHMASIQNLYETVVGVLGDQASKVISALGEITVECLPEHYISVMTALRDHEELHFELLVDLCGVDYSTYKNEVWQGKRFAVVSQLLSVKNNQRIRVRVWVSDDDFPVVESVVDIYNSADWYEREAFDMYGIMFNNHPDLRRILTDYGFVGHPFRKDFPISGYVEMRYDEEQKRVIYQPVTIEPREITPRIVREENYGGQ | not soluble |
| MPRSFLVKKHFNASKKPNYSELDTHTVIISPYLYESYSMPVIPQPEILSSGAYSPITVWTTAAPFHAQLPNGLSPLSGYSSSLGRVSPPPPSDTSSKDHSGSESPISDEEERLQSKLSDPHAIEAEKFQCNLCNKTYSTFSGLAKHKQLHCDAQSRKSFSCKYCDKEYVSLGALKMHIRTHTLPCVCKICGKAFSRPWLLQGHIRTHTGEKPFSCPHCNRAFADRSNLRAHLQTHSDVKKYQCKNCSKTFSRMSLLHKHEESGCCVAH | not soluble |
| MSGAEQQQIVPANNGDENWKAGLNLPAKDRRFKTADVTDTKGVEFEDFCLGRDLLMGIFEKGWEKPSPIQEASIGVALTGQDILARAKNGTGKTGAYCIPVIEKIQPALKAIQAMVIVPTRELALQTSQICVELSKHIQLKVMVTTGGTDLRDDIMRLNGTVHLVIATPGRILDLMEKGVAKMEHCKTLVLDEADKLLSQDFQGILDRLINFLPKERQVMLYSATFPNTVTSFMQKHMHKPYEINLMEELTLLGVTQYYAFVQEKQKVHCLNTLFRKLQINQSIIFCNSTQRVELLAKKITEIGYSCYYIHSKMAQNHRNRVFHDFRQGNCRNLVCSDLLTRGIDIQAVNVVINFDFPRNAETYLHRIGRSGRFGHLGVAINLITYEDRHTLRRIEQELRTRIEPIPKTVDPKLYVADQQLVDAADETTA | not soluble |
| MSGNRGGSYISGIVPSFKERRPFHERQKDVEEIRSQQPNKVPVIIERFDGERSLPLMDRCKFLVPEHITVAELMSIVRRRLQLHPQQAFFLLVNERSMVSNSMSMSNLYSQERDPDGFVYMVYTSQPAFG | not soluble |
| MQSLMNNPVTRSNAPCLIVGIGYTTGSVRDLAQRAADYTPPLGDNATADERRQFGQADRFADFIDSELTAFLESRYTLNRNETAVFGHSFGALFGLYSLLSHRCFRRHWLVSPSIWWHNRRILDFMPSENRLDGIDACLNIGALERSSGCKRREERDMAGQAEQMAAELDRRGTAVFFREYPNADHGNVPFYSLTDCVEYLRE | not soluble |
| MGSDKIHHHHHHMRSHGGDVYKVSPNYDRITDMSSNVNPFLDLGKYSLYPEISYTDIEEKLRVYTKSTNMGIVIGPGLTHLIYKYFEFYQVKKPIIAMPNFSEYKGIAEDRHLRFSAIPSYIIEKDPLILKNFDHDALFITSPSNPFGELFPESTLETVFEIEEKRGRRVFLDGAFMDFVPNYAESIVQSSRSYFNVTIGRSLTKILAIPSLRAGYLIMERHEADLFRKAMEPWSICQPAIDFIRSIDINEVAKNSVALVNGEREYLISELKARGIKVIGNPSANYIVISMPRTDEFYNFMLSKGILVRLLDDYDYVGRCLVRLAIKTRSQNNAFLNALDNFMSSSE | not soluble |
| MSLVLNDLLICCRQLEHDRATERKKEVEKFKRLIRDPETIKHLDRHSDSKQGKYLNWDAVFRFLQKYIQKETECLRIAKPNVSASTQASRQKKMQEISSLVKYFIKCANRSK | not soluble |
| MHRDSTDIEVKRASELPENLPETTCAFANMPSGGTIILGVDENRDFEVVGVADAAALEEALISQTRNSVKPAPMIECETFTLEGKQVLVAQVNPVPLQNRPAHYRGVAYLRQSDGDYGMNDADLALVEIQKLSHSENFQFDVVPVLNSSTRDLDSVRVKSFLEAARAGSRILSKKIDDQELLETLNIVTVKGAAALEHHHHHH | not soluble |
| MGSDKIHHHHHHMQRIAMISEHASPLASVGSVDSGGQNVYVAHLARQLGKSGYLVDVFTRRDKALLPDVVAFAPNVRVVHVPAGPAVFVPKEQLLSFMPAFGDSMVDFMRRDAIGYDVLHANFFMSGVAAMRAREVLDIPLVMTFHALGKVRRLHQGSADGFPDNRFEIEDELVRHADRVVAECPQDLDDLATLYGGDPERIDIVPCGFDEEEFAPLDRAEARRALDWDADVFTVLQLGRLVPRKGIDNVIRAIGHLRRDFRIPARLYVVGGNAEQPSVEATPEIGRLQGVADEAGVSDCVTFVGRRRRSQLCHFYSASDVFVTTPWYEPFGITPVEAMACGVPVVGADVGGIRSTVVDGETGYLVPPHAPEALADRLARLAGDRALARRMGAAGLQRAHANYTWMSVARTMEQVYARVMRAERPARRVAA | not soluble |
| MGSDKIHHHHHHMALQWVKRTIKAGAALAGCVLVVTALDPARGSVDAKERVKGIVAAAAMSPAGIPFELAAQEIATIGTRPMAERLSISGELQPVNRVLIRAREAGKILEMNVREGQAVRAGDMLVRFETDELQSTLLLRQSDRDAAEAELMLAMQALARTEQLAAKNIASTEQLDKAKSDVVVKTTRVQSLSSQVDIARLALRNAEIRAPFDGTVTRRVAETGARIGADGELLTLVDTSELEAKVLVATRDIPRVARGQTAELEIDGLAGQIVKGTVERISPVAEDGTRVVAVYLRLANRDGQLWGGMFAGGSILLREKNDALVVPAIALRKDETGYHVLKIQDGHLRRQTVAVGPRWNGGSLIEIGAGLADGETILTVPLPELRPDMAVTIDKAG | not soluble |
| YVWDTKMNVGLRVGAAAEFMIGSRGFYLAPGLNYTMKGSKTEWDIPEMVPGTYITMVSTRLHYLQLPINAGMRFDLMNDMAVSIEAGPFLAYGIYGTYRQKLEGWKPNNYSTEFFGPTLGGPTNIRWDIGANIIAAFHYKRYYIQIGYEHGFVDIVSGGGSDIPRLNDNRQSSSTTALREKGNNEYAYNRDFFVGIGYRF | not soluble |
| NAIQWVEHTDRVINNTNRSMKLSIDMETGMRGFLLTGDQHFLDPYEIAKPLLVAELNGLQDLVKDNPTQQDRFRRLFTMQQEWNVFAQDMIDLRRNNGDFQTPVLAGRGKRITDQIRTEYEQAVEMEQQLRLTRNAE | not soluble |
| MGSDKIHHHHHHMTRSFYWVDHSTQTFAERDLSKTVVVLPIAAVEQHGPHLPVDVDAAINAEIIRRTVARLQPDTDVLFLPPMMVGKSDEHIAFPGTLAISGETLRHVWLDLARSVKRAGAAKLILFNSHGGQMALMDIVCRDIRIELGMLAVSCSWFRIAPVEDLFSRAEIDHGIHGGDIETSMMLAIAPERVAMDKAENFVPLTVAIEKSGSMLTAEGAVGFGWQAQDLHPAGVCGNASNATAQKGQIVLDRAADGLVSLIAATQAFDLSQLTSQTRFSNLCRARRIP | not soluble |
| MQPKVVYGNAAVEGVNRWGWFMGHFITPEDDPRSTEMLEVKWAVHKAGDSRTEWAVNNQAATLSILIDGEFRLQFEDREILLSREGDYVLWCAGVPHWWVAESDCTILTVRWPSKPGDSVALPEESKS | soluble |
| MHYVTPDLCDAYPELVQVVEPMFSNFGGRDSFGGEIVTIKCFEDNSLVKEQVDKDGKGKVLVVDGGGSLRRALLGDMLAEKAAKNGWEGIVVYGCIRDVDVIAQTDLGVQALASHPLKTDKRGIGDLNVAVTFGGVTFRPGEFVYADNNGIIVSPQALKMPELEHHHHHH | soluble |
| MGSSHHHHHHSSGLVPRGSHMGGGRSTETSSSSGGDGGATKKKVVVGTDAAFAPFEYMQKGKIVGFDVDLLDAVMKAAGLDYELKNIGWDPLFASLQSKEVDMGISGITITDERKQSYDFSDPYFEATQVILVKQGSPVKNALDLKGKTIGVQNATTGQEAAEKLFGKGPHIKKFETTVVAIMELLNGGVDAVITDNAVANEYVKNNPNKKLQVIEDPKNFASEYYGMIFPKNSELKAKVDEALKNVINSGKYTEIYKKWFGKEPKLDRLKQ | soluble |
| GMATVRLLDDAEISTLPEVKAVFDDIRATRGSDFVNNIWRGLANDPALLKRTWEQVKTVMVGEGALDPLTREMIYLAVSTANSCSYCAHSHTAAARAKGMTPAQHAEVLAIIGLAAQTNALVTAMQIPVDEAFLVDGK | soluble |
| MIGYPIVFRCCECTVEEQTMEHLESHIWSRHLQAFPFKCAYCDFPALSAISLMDHFAQNHSDVAIVEFKRNLEDEKRFRKMVADSIAIEIDETSQQDSSTQMTVLQPMMQQGTAQMILLPPEGSQYDEIVDHRGPDEDDFGVLDDDENIEELIDDDDDDDYIDELGNPVFIGAHDDSDYILEDDLSPQGPIRSSNNYHLKYIRTRRMDKLIDNVVVNATQRDSPEQEDCSTSGVAFADGQTNSGKMGRFSCDRCSRTFKYQSKLDEHRRTHLGVKPFQCHYCTRQFSQRGALKTHMRLHTGERPFVCQWECGKQFASSSAKSHHEKTHSGERPYICNVCGKSFTKNSHVIRHLKNIHNRELAQQDAMLRGDDVQSTDESLNIGSARSQMSDIEPRGKEIGVVHDIVEQIHEERKDFMRL | not soluble |
| MSLLWSRCTLFLFLCPIRVRGREHIPGKGPFVVMANHQGACDIFMMYGYLGIPFKWVLKEGIRKLPFVGYACRSAGFVFVDDTRPSSIAHTMDQAKRVLAEGTSIFIFPEGSRTRNGRLARFKKGGFLMADELGVPIIPVSLDGSYRVLPSGKLIPRPHRLTLTIHPPLSVADFGERPLCISEAVRETSRRIASVLPEEMAATQSKEGHHHHHH | not soluble |
